Positions count from the first letter of the chain named. In names and notes the source's numbering stands.
Legend:
Experiment in all cases: cell-based or functional assay
[1] = biological target: human IL27 receptor (IL27Ra and gp130) on NCI-H929/GAS-Luc cells (human) (UniProt Q6UWB1)
[2] = biological target: T1, murine IL27 receptor (IL27Ra and gp130) on mouse cells (MC9/STAT3-Luc reporter cells; splenic CD4+ T cells) (mouse, UniProt O70394 25-623; Q00560 23-917)
T1 sequence (looked up) 1: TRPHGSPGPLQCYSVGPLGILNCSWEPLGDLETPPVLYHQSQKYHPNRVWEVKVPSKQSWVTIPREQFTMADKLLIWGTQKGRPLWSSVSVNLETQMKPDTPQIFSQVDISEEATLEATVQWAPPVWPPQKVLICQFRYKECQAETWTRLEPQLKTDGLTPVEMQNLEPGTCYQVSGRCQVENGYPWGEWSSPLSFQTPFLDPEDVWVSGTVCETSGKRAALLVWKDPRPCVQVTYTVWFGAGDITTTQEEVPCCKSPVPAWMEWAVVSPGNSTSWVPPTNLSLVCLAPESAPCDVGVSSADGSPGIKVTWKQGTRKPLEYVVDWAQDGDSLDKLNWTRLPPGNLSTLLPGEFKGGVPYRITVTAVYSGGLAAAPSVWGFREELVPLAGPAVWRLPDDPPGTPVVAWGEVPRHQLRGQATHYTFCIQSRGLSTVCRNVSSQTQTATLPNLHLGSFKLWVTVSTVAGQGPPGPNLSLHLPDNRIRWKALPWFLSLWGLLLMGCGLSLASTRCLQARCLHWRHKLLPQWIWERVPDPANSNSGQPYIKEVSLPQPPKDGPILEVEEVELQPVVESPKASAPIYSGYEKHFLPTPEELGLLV
T1 sequence (looked up) 2: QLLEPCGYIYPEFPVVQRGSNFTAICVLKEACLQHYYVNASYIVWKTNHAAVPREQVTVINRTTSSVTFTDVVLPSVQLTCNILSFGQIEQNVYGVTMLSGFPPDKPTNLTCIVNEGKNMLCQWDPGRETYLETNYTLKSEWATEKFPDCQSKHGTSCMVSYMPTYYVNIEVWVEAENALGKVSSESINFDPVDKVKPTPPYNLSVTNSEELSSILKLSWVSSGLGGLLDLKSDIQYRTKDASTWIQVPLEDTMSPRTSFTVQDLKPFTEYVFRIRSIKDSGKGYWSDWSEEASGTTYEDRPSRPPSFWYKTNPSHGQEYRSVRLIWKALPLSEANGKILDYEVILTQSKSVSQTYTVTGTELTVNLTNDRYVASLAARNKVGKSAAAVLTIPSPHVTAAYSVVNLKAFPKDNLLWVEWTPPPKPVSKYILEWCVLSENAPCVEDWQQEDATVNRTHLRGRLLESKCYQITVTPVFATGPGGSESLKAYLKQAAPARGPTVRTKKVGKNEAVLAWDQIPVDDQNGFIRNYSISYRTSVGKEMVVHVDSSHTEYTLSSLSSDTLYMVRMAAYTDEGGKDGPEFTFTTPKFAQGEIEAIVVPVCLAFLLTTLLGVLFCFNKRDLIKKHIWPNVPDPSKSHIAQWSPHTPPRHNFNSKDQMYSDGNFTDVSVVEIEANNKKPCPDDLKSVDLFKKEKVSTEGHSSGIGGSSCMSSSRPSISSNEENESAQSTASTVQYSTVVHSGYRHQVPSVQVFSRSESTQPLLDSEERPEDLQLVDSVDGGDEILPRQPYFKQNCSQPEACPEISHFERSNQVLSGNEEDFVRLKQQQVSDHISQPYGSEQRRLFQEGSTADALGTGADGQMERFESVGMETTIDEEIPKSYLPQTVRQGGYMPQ

[3] = biological target: T1, murine IL27 receptor (IL27Ra and gp130) …; remark: listed apart in the source
[4] = biological target: T2, murine IL27 receptor (IL27Ra and gp130) on mouse cells (MC9/STAT3-Luc reporter cells; splenic CD4+ T cells) (mouse) (UniProt O70394)
T2 sequence (looked up) 1: T1 sequence (looked up) 1
T2 sequence (looked up) 2: T1 sequence (looked up) 2

Chain of human IL27 receptor (IL27Ra and gp130) on NCI-H929/GAS-Luc cells (human) (Q6UWB1 33-636, chain 1 of 2): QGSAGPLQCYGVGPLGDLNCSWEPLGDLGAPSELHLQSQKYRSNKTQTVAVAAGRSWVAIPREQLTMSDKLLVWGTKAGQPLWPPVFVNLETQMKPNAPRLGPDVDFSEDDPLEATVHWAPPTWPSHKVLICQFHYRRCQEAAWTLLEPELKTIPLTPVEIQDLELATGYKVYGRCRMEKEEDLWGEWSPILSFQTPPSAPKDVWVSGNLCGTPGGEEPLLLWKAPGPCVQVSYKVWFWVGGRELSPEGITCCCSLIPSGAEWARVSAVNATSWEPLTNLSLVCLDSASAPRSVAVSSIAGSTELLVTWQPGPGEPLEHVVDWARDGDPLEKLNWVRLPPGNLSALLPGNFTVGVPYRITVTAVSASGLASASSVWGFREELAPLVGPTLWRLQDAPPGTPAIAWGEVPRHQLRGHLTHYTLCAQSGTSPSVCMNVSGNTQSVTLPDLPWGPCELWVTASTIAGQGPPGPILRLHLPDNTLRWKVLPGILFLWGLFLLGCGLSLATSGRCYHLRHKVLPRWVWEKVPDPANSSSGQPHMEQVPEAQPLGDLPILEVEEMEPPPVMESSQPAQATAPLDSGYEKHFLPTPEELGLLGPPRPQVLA
Chain of human IL27 receptor (IL27Ra and gp130) on NCI-H929/GAS-Luc cells (human) (chain, as listed by the source, chain 2 of 2): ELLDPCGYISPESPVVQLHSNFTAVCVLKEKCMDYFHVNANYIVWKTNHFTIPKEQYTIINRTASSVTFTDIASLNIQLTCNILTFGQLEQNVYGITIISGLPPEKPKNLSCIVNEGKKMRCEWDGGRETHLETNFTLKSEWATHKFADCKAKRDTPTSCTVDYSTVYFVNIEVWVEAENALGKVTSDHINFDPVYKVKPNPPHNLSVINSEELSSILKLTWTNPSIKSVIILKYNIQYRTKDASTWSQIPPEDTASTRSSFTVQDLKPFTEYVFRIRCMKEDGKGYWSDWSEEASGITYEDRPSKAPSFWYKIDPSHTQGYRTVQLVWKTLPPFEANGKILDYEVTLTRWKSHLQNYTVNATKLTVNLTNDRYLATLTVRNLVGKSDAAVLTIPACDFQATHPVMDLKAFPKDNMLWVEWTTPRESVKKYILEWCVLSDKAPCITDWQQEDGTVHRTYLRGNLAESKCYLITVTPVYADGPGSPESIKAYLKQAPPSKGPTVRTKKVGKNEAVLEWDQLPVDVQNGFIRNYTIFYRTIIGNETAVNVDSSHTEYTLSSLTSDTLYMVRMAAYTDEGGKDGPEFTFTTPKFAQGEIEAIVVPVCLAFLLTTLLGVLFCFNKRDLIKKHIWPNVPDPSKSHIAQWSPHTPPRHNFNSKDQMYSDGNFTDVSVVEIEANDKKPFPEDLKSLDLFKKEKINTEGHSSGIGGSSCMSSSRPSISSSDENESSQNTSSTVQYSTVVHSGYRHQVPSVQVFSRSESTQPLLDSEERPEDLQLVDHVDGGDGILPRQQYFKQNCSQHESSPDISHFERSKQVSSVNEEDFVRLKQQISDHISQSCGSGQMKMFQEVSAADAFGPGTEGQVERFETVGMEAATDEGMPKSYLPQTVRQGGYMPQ

Molecule: human EBI3-p28-Fc (bivalent), configuration IL27M1 (Fc fusion)
- EC50 (M), GAS luciferase, NCI-H929/GAS-Luc cells [1]: 5.35e-09 M
- FOLD INDUCTION, GAS luciferase, NCI-H929/GAS-Luc cells [1]: 15.2 fold

Molecule: human hEBI3×hp28-Fc (monovalent) (Fc fusion)
- EC50 (M), GAS luciferase, NCI-H929/GAS-Luc cells [1]: 1.27e-10 M
- FOLD INDUCTION, GAS luciferase, NCI-H929/GAS-Luc cells [1]: 14.3 fold

B1: IL27M16, monovalent Fc x EBI3-p28 (Fc fusion)
chain 1: ESKYGPPCPPCPAPPVAGPSVFLFPPKPKDTLMISRTPEVTCVVVDVSQEDPEVQFNWYVDGVEVHNAKTKPREEQFNSTYRVVSVLTVLHQDWLNGKEYKCKVSNKGLPSSIEKTISKAKGQPREPQVYTLPPSQEEMTKNQVSLWCLVKGFYPSDIAVEWESNGQPENNYKTTPPVLDSDGSFFLYSRLTVDKSRWQEGNVFSCSVMHEALHNHYTQKSLSLSLGKGGGGSGGGGSGGGGSYTETALVALSQPRVQCHASRYPVAVDCSWTPLQAPNSTRSTSFIATYRLGVATQQQSQPCLQRSPQASRCTIPDVHLFSTVPYMLNVTAVHPGGASSSLLAFVAERIIKPDPPEGVRLRTAGQRLQVLWHPPASWPFPDIFSLKYRLRYRRRGASHFRQVGPIEATTFTLRNSKPHAKYCIQVSAQDLTDYGKPSDWSLPGQVESAPHKPGGGGSGGGGSGGGGSGGGGSFPTDPLSLQELRREFTVSLYLARKLLSEVQGYVHSFAESRLPGVNLDLLPLGYHLPNVSLTFQAWHHLSDSERLCFLATTLRPFPAMLGGLGTQGTWTSSEREQLWAMRLDLRDLHRHLRFQVLAAGFKCSKEEEDKEEEEEEEEEEKKLPLGALGGPNQVSSQVSWPQLLYTYQLLHSLELVLSRAVRDLLLLSLPRRPGSAWDS
chain 2: ESKYGPPCPPCPAPPVAGPSVFLFPPKPKDTLMISRTPEVTCVVVDVSQEDPEVQFNWYVDGVEVHNAKTKPREEQFNSTYRVVSVLTVLHQDWLNGKEYKCKVSNKGLPSSIEKTISKAKGQPREPQVYTLPPSQEEMTKNQVSLSCAVKGFYPSDIAVEWESNGQPENNYKTTPPVLDSDGSFFLVSRLTVDKSRWQEGNVFSCSVMHEALHNRFTQKSLSLSPGK
- EC50 (M), STAT3 luciferase, MC9 cells [2]: 1.18e-11 M
- FOLD INDUCTION, STAT3 luciferase, MC9 cells [2]: 2.76 fold
- EC50 (M), STAT3 luciferase, MC9/STAT3-Luc cells [3]: 1.16e-11 M
- FOLD INDUCTION, STAT3 luciferase, MC9/STAT3-Luc cells [3]: 5.62 fold

B2: IL27M24, monovalent Fc x EB13-p28 (K52A) (Fc fusion)
chain 1: B1 chain 1 with K497A
chain 2: B1 chain 2
- EC50 (M), STAT3 luciferase, MC9/STAT3-Luc cells [3]: 1.18e-11 M
- FOLD INDUCTION, STAT3 luciferase, MC9/STAT3-Luc cells [3]: 5.59 fold

B3: IL27M26, monovalent Fc x EB13-p28 (L198A, L199A) (Fc fusion)
chain 1: B1 chain 1 with L643A, L644A
chain 2: B1 chain 2
- EC50 (M), STAT3 luciferase, MC9/STAT3-Luc cells [3]: 3.85e-10 M
- FOLD INDUCTION, STAT3 luciferase, MC9/STAT3-Luc cells [3]: 2.8 fold

B4: IL27M25, monovalent Fc x EB13-p28 (L138A, R145A, H146A) (Fc fusion)
chain 1: B1 chain 1 with L583A, R590A, H591A
chain 2: B1 chain 2
- FOLD INDUCTION, STAT3 luciferase, MC9/STAT3-Luc cells [3]: 4.35 fold

B5: IL27M27, monovalent Fc x EB13-p28 (W195A) (Fc fusion)
chain 1: B1 chain 1 with W640A
chain 2: B1 chain 2
- FOLD INDUCTION, STAT3 luciferase, MC9/STAT3-Luc cells [3]: 1.2 fold

B6: IL27M23, monovalent Fc x EB13-p28 (Y202A, Q203A) (Fc fusion)
chain 1: B1 chain 1 with Y647A, Q648A
chain 2: B1 chain 2
- EC50 (M), STAT3 luciferase, MC9/STAT3-Luc cells [3]: 1.98e-11 M
- FOLD INDUCTION, STAT3 luciferase, MC9/STAT3-Luc cells [3]: 5.34 fold

B7: IL27M14, 2:2 complex between IL27M13 (p28-Fc) and EBI3-mmh (Fc fusion)
chain 1: FPTDPLSLQELRREFTVSLYLARKLLSEVQGYVHSFAESRLPGVNLDLLPLGYHLPNVSLTFQAWHHLSDSERLCFLATTLRPFPAMLGGLGTQGTWTSSEREQLWAMRLDLRDLHRHLRFQVLAAGFKCSKEEEDKEEEEEEEEEEKKLPLGALGGPNQVSSQVSWPQLLYTYQLLHSLELVLSRAVRDLLLLSLPRRPGSAWDSGGGGSGGGGSGGGGSESKYGPPCPPCPAPPVAGPSVFLFPPKPKDTLMISRTPEVTCVVVDVSQEDPEVQFNWYVDGVEVHNAKTKPREEQFNSTYRVVSVLTVLHQDWLNGKEYKCKVSNKGLPSSIEKTISKAKGQPREPQVYTLPPSQEEMTKNQVSLTCLVKGFYPSDIAVEWESNGQPENNYKTTPPVLDSDGSFFLYSRLTVDKSRWQEGNVFSCSVMHEALHNHYTQKSLSLSLGK
chain 2: YTETALVALSQPRVQCHASRYPVAVDCSWTPLQAPNSTRSTSFIATYRLGVATQQQSQPCLQRSPQASRCTIPDVHLFSTVPYMLNVTAVHPGGASSSLLAFVAERIIKPDPPEGVRLRTAGQRLQVLWHPPASWPFPDIFSLKYRLRYRRRGASHFRQVGPIEATTFTLRNSKPHAKYCIQVSAQDLTDYGKPSDWSLPGQVESAPHKPEQKLISEEDLGGEQKLISEEDLHHHHHH
- EC50 (M), STAT3 luciferase, MC9 cells [2]: 2.81e-10 M
- FOLD INDUCTION, STAT3 luciferase, MC9 cells [2]: 2.71 fold

B8: Recombinant murine IL27 (R&D Systems cat# 2700-ML-010/CF), Mouse EBI3-(GGGS)4-Mouse p28-6-His tag (ligand)
chain: YTETALVALSQPRVQCHASRYPVAVDCSWTPLQAPNSTRSTSFIATYRLGVATQQQSQPCLQRSPQASRCTIPDVHLFSTVPYMLNVTAVHPGGASSSLLAFVAERIIKPDPPEGVRLRTAGQRLQVLWHPPASWPFPDIFSLKYRLRYRRRGASHFRQVGPIEATTFTLRNSKPHAKYCIQVSAQDLTDYGKPSDWSLPGQVESAPHKPGGGSGGGSGGGSGGGSFPTDPLSLQELRREFTVSLYLARKLLSEVQGYVHSFAESRLPGVNLDLLPLGYHLPNVSLTFQAWHHLSDSERLCFLATTLRPFPAMLGGLGTQGTWTSSEREQLWAMRLDLRDLHRHLRFQVLAAGFKCSKEEEDKEEEEEEEEEEKKLPLGALGGPNQVSSQVSWPQLLYTYQLLHSLELVLSRAVRDLLLLSLPRRPGSAWDSHHHHHH
- EC50 (M), STAT3 luciferase, MC9/STAT3-Luc cells [4]: 3.22e-12 M
- EC50 (M), STAT3 luciferase, MC9 cells [4]: 4.62e-12 M
- EC50, luciferase activity, MC9/STAT3-Luc reporter cells [4]: 0.0063 nM
- EC50, phosphorylation of STAT1 in CD4+ T-cells [4]: 0.0244 µg/mL
- FOLD INDUCTION, STAT3 luciferase, MC9/STAT3-Luc cells [4]: 5.25 fold
- FOLD INDUCTION, STAT3 luciferase, MC9 cells [4]: 2.86 fold

B9: IL27M17, Bivalent Fc-p28 (Fc fusion)
chain: ESKYGPPCPPCPAPPVAGPSVFLFPPKPKDTLMISRTPEVTCVVVDVSQEDPEVQFNWYVDGVEVHNAKTKPREEQFNSTYRVVSVLTVLHQDWLNGKEYKCKVSNKGLPSSIEKTISKAKGQPREPQVYTLPPSQEEMTKNQVSLTCLVKGFYPSDIAVEWESNGQPENNYKTTPPVLDSDGSFFLYSRLTVDKSRWQEGNVFSCSVMHEALHNHYTQKSLSLSLGKGGGGSGGGGSGGGGSFPTDPLSLQELRREFTVSLYLARKLLSEVQGYVHSFAESRLPGVNLDLLPLGYHLPNVSLTFQAWHHLSDSERLCFLATTLRPFPAMLGGLGTQGTWTSSEREQLWAMRLDLRDLHRHLRFQVLAAGFKCSKEEEDKEEEEEEEEEEKKLPLGALGGPNQVSSQVSWPQLLYTYQLLHSLELVLSRAVRDLLLLSLPRRPGSAWDS
- FOLD INDUCTION, STAT3 luciferase, MC9 cells [2]: 1.16 fold

B10: IL27M18, 2:2 complex between IL27M17 (Fc-p28) and EBI3-mmh (Fc fusion)
chain 1: B9 chain
chain 2: B7 chain 2
- EC50 (M), STAT3 luciferase, MC9 cells [2]: 2.36e-10 M
- FOLD INDUCTION, STAT3 luciferase, MC9 cells [2]: 2.86 fold
